Reference: the DeepSol protein solubility set

Test: soluble on expression in E. coli; label from the status in PepcDB or PDB records

Row | Sequence | soluble on expression in E. coli
1 | MSLTEQRAVIAIYLRLSRESDDSTSLETQRSFAHRWLLAHGYDPADAVEYIDASVSGAKPLEARKGMAALMAARPTVVVAWKLDRFARSVSDFLRLVAWAEAHGASIATTDNAIDTTTATGRMVATVLAALAEWERNAIASRITDGHATRRSQGRWSSGRPPFGYRIERRDGAAYLAIDDDQAAKIRKAVAALVNGSTVAATARLTGLSEPQWRRLLKSPTLRGQRAHKGELVCEVDGITPVKFAEPILSAAELLKVRERMLALATGQDRAPRRATPMCSGMAFCHRCAGKLNGGTSDKGVPLYRCKAGHVTIYAETLDSRVESEFLTTFGSYAETVIRLEGGNDLSAELLEAKEQAERLAARMATAGPLMLGTLESLAQDLEDTHARLRAAHDPDVREVQVATGRTMAQAWEMYDVPDRSRLLAGMGLRVSLHPRQLADRLTITWGPTPEEAPEAEWDGLALSEAEGHHHHHH | not soluble
2 | MSLTESGSCSTARQAKQKRKSHSLSIRRTNSSEQERTGLPREMLEGQDSKLPSSVRSTLLELFGQIEREFENLYIENLELRREIDTLNERLAGEGQAIDGAELSKGQLKTKASHSTSQLSQKLKTTYKASTSKIVSSFKTTTSRAICQLVKEYIGHRDGIWDVSVTRTQPIVLGTASADHTAMLWSIETGKCLVKYAGHVGSVNSIKFHPSEQLALTASGDQTAHIWRYVVQLPTPQPVADTSQQISGEDEIECSDKDEPDIDGDVSSDCPTVRVPLTSLKSHQGVVIAADWLVGGKQVVTASWDRTANMYDVETSELVHSLTGHDQELTHCCTHPTQRLVVTSSRDTTFRLWDFRDPSIHSVNVFQGHTDTVTSAVFTVGDNVVSGSDDRTVKVWDLKNMRSPIATIRTDSAINRINVCVGQKIIALPHDNRQVRLFDMSGVRLARLPRSSRQGHRRMVCCSAWSEDHPICNLFTCGFDRQAIGWNINIPALLQEKEGHHHHHH | not soluble
3 | MSLTEYVHGYSEREALRLSEQAETLEKLLHHDTVYPPGAKVLEAGCGIGAQTVILAKNNPDAEITSIDISPESLEKARENTEKNGIKNVKFLQANIFSLPFEDSSFDHIFVCFVLEHLQSPEEALKSLKKVLKPGGTITVIEGDHGSCYFHPEGKKAIEAWNCLIRVQAYMKGNSLVGRQIYPLLQESGFEKIRVEPRMVYIDSSKPELVDGFILKTIIPMVEGVKEQSLKMQIIKEEEWEKGIEELHKTAEHGGTFCYTFFKGWGTKEGHHHHHH | soluble
4 | MSLTFTEQAKDQAQASWQGSFQHPFITELHEGTLSPTIFRYYLIQDHYYLKHFSQLYRLIAAQTQQPRLKKLLLTNAENLALGELAIRETFFEELAITEEEVAATPIAPTAYHYVSHMYRQLIEGTPKTAAASMLPCSWLYQEIGAQLVKQHSPEPLYQRWIETYAGEEAYQHVQEERQLLDQLYEESSPQEQAAMITAFVISSEMEYAFWEMAYTHETWIGEGGSHHHHHH | soluble
5 | MSLTILAIDTSNYTLGIALLREDTVIAEYITYLKKNHSVRAMPAVHSLLNDCDMAPQDLSKIVVAKGPGSYTGVRIGVTLAKTLAWSLDIPISAVSSLETLAANGRHFDGLISPIFDARRGQVYTGLYQYKNGLLEQVVPDQNVMLADWLEMLKEKDRPVLFLGHDTSLHKQMIEDVLGTKGFIGTAAQHNPRPSELAFLGKEKEAADVHGLVPDYLRLAEAEAKWIESQKEGHHHHHH | soluble
6 | MSLTILELTFATNQLTTTFFNHKLEPLHQKTFPFEALTIEETVPELCQLILAEAAPILGGIVADFPADFFSPEETLALVPQAVIQAFAEQLNTPLLTAAEQAAAPNLLEAFEEKRQYLAWHLDYYGYVPGKNEYAVESLLTVGNGFLGLRGTTPEMTISDDHYPATYIAGLYNTAASEVAGQVVENEDFVNAPDNQHIALKIGDATDWLTISPDTLQQLHRQLNLKTGLFVAEMILKDADNQQIKLTTKKIANMAQPNDYHLQYTFEPLNFSAPITLKTVTDGSVYNYNVARYRNLTAKHFQVTALSAQENKTVIEVCTNQSNLSVRETSLITGDFFEKEAITIQEEAEKIAQVVTVMAHQGTRYTLEKQVFVQASHAEQSWQVPFTPKDSFAAAAQESARAWQTLWQQANITVTGDLMSQKLLRIHSYHLLASASPFSNQAQALDVSITARGLHGEAYRGHIFWDEIFILPFYIQHYPDTAKQLLLYRYHRLEKAKENAAASQYRGAMYPWQSGRDGRETTQKLHLNPLNGHWGEDHSILQRHVSLAIAYNAWLYWHSTQDHEFMKQYGGEMLLEIAQFWNSAATLDDATGRFFIDKVMGPDEFHEGYPDQAESGLKNNAYTNLMVVWLFEELTNILALFSEEEQAQLFAKTQTTSADLARMQQIQNSLEIEVNSDGIIAQYEGYFGLKEIDWTAMKEKYGNIYRMDRILKAEGESPDDYKVAKQADTLMLFYNLDKTRVDQILEDLGYQLPADYLEKNLLYYLKRTSHGSTLSRIVHAQLAEMAQFHELSWQLYQEALYSDYRDIQGGTTAEGIHTGVMAATIHVTLATYAGVDTRQNELSICPNLPEHWQALAFQFIHQGVTYQFSLTQTSVTITADRDTQLLVQGALIPLTAERPKEVHYQEGHHHHHH | soluble
7 | MSLTIPDSTPSDFSHEFFGSLDPQALAHPDSIKWQHYGEGVIPMWIADMDFPVAPPILRALEDRLTRGLGYPLGRDDRLIADLQTKWASQGLTDVPADGIHFTPSVVPGLYAGVHGLTEPGDRVVTMTPIYHPFHLAINDLGREVAAAPLREGDTRWEIDWDALERAAEGARLLMLCHPHNPCGRVWDADELARLRELVLAHDLYVISDELHADLRFTDAPFEAFAADPRVRDRTLTVTGPCKAFNTAGLGIGVMVTHDPELLARVQRRVAGLGGHPSALSFTMWRVALEDGGPWLARTVEYLRGNRDFMTAFLRERLPWVRFTVPEATYLAWLDLREHPEAGRIQEFLLEEAKVAVHNGPTFAPGEQGAAYQGFIRVNFATSRAILTEALERMARALDTRQEGHHHHHH | soluble
8 | MSLTMAKTLYEKVFDAHVVYEGKNELPILYIDRHLIHEVTSPQAFSGLKMAKRRMARADLTLATIDHDVSTKSMDLNACSDMAKEQITTLMQNTKEFGVRLLGLGDKNQGIVHIVGPELGFTLPGVTLVCGDSHTATHGAFGALAFGIGTSEVEHVMATQTLKQAKLKTMKIECKGQFQKGVYTKDLILYLIAQYGTAKGTGYAIEFCGELIRNLSMEARMTLCNMAIEFGAKVGMIAPDEITFEYIKGKEFAPKGEEFQKYCEYWKSLRSDEGAKYDASITLDVSKIKPQISYGTNPSQVIGIDEKIPKISDFKNQSEQKSLLDALYYVNLEQDQVIEGVKIDIVFIGSCTNGRLEDLKIAADILKGRKIHKNVKALIVPGSMQVRKEAENLGLDKIFIEAGCEWRYAGCSMCLGMNDDKANSGQRVASTSNRNFVGRQGKGSITHLMSPASAAACAIEGVICDNRKYLGEGHHHHHH | soluble
9 | MSLTNDIYDKGLAIRKEVVGVDSVERSLRDATEYTAPFQALATEYCWGRVWGRDELDRRTRSIANIAMMIALNRAPELRIHIKGALTNGVPRKEIAEVILQSAVYCGIPAAGDAFRQMQSVFDEADAAAACAPASPAARKSIAVIGLGAMGYPMAAQLVRAGHDVRPYDANPAVLARFAEEFNTGVAPIASCVAGADFVVTVLPDSTVVTRVLDGDNGSGGVAARIKPGATLIDMTSGDPATTRALAARLGEAGVRMIDAPVSGGFVKARTGELAIMVGGEADTVAAAMDILQAMGTSIAHVGPIGAGHTVKALNNYISAIGWLAVIEAIHTGKRFGLDVATMNRIFNQSSGRNSSTANKVEQAVLSGTYHTGFSLALMAKDVGIAVGLARQMGVDAEVGTLAHRIIQTAFDQSAEKDLDNSRLFDILYSEGHHHHHH | not soluble
10 | MSLTNVAEDQLTAQAVAPPTEASAALEPALETPESPVETLKTSISASRRVRARLARRMTAQRSTTNPVLEPLVAVHREIYPKADLSILQRAYEVADQRHASQLRQSGDPYITHPLAVANILAELGMDTTTLVAALLHDTVEDTGYTLEALTEEFGEEVGHLVDGVTKLDRVVLGSAAEGETIRKMITAMARDPRVLVIKVADRLHNMRTMRFLPPEKQARKARETLEVIAPLAHRLGMASVKWELEDLSFAILHPKKYEEIVRLVAGRAPSRDTYLAKVRAEIVNTLTASKIKATVEGRPKHYWSIYQKMIVKGRDFDDIHDLVGVRILCDEIRDCYAAVGVVHSLWQPMAGRFKDYIAQPRYGVYQSLHTTVVGPEGKPLEVQIRTRDMHRTAEYGIAAHWRYKEAKGRNGVLHPHAAAEIDDMAWMRQLLDWQREAADPGEFLESLRYDLAVQEIFVFTPKGDVITLPTGSTPVDFAYAVHTEVGHRCIGARVNGRLVALERKLENGEVVEVFTSKAPNAGPSRDWQQFVVSPRAKTKIRQWFAKERREEALETGKDAMAREVRRGGLPLQRLVNGESMAAVARELHYADVSALYTAIGEGHVSAKHVVQRLLAELGGIDQAEEELAERSTPATMPRRPRSTDDVGVSVPGAPGVLTKLAKCCTPVPGDVIMGFVTRGGGVSVHRTDCTNAASLQQQAERIIEVLWAPSPSSVFLVAIQVEALDRHRLLSDVTRALADEKVNILSASVTTSGDRVAISRFTFEMGDPKHLGHLLNAVRNVEGVYDVYRVTSEGHHHHHH | not soluble
11 | MSLTPPRSLLHALKPFLEAGADKEALVFGAHRISFGDMAGHAAALAEVLRSKGVQKGDRVAALFPPRPEAILSLLACWLIGATWMGINPRYQRREQAQILADAGVKVLMSMTRIGKRDLEDDLASHETDLGFSVLRFAPAFAPAALPEKLPYDEVLRRWREATETLEPDSPSVVIYTSGSTGKPKGALITHAGLAFRSHTLHIDRFNLPAPTQLIDLPVNHIGALASGIGVAMASGGKMILSEQFDPGVTLRTAFAEKLAIISGVPAMLARLVEHPDFATSDLSSVKAISWGAGPINEAVLRKLLNATDALFSQQYGMTESNGPIVFTPPTRDVEVLLNTTGKPDPRLELRIADESGQPLPDGEEGEVQIRHPHPFAGYLGNAEASAAAFTADGFLHTGDLAMVREDGYLVFCGRSKEMYKSGGFNVYPREIEIALEAHPAIRAAAVLGVDDEQWGQVGHAFVELASPLTSDDITGWCKARLADFKVPKRVSVIDAMPRTPVDKVDRMQLAELAARGEGHHHHHH | soluble
12 | MSLTPSVSTKELEGGLLIVDEMSMVDTWLANTLFKAIPTNMQVILVGDKDQLPSVGPGQVLHDLLEIEQIPKMELNQIYRQGDGSSIIPLAHEIKEGRLPKDFTKNQKDRSYFRSDAYQIEPLISKIVEKAKNKGFRAQDIQVLAPMYRGPAGIDALNKMMQEIFNPGKPGKKEVHWNDTVYRIGDKVLQLVNTPELNVFNGDMGEITGIILAKDSEDKVDELVIQFDANEVTYKRNEWNKITLSYCCSIHKSQGSEFKMVILPMVHQYQRMLQRNLLYTAVTRSKELLILLGEEQAYVTCVANESASRMTTLKSRIMDNDKMNEGHHHHHH | not soluble
13 | MSLTPTFKDKIARAPKAELHIHIEGSLEPELIFALAQRNGVKLAYDSIDALRAAYAFTDLQSFLDIYYAGASVLLTEQDFYDMTAAYCERALADNVVHTELFFDPQTHTERGVSIETVVAGIERALADAEQRGLSSKLILCFLRHLSEEDALATFESALPLFERYRHRLIGVGLDSSELGHPPTKFARVFEKARALGLKLVAHAGEEGPPAYIYEALDVLKVDRIDHGVRSIEDEALVERLAKTRTALTVCPLSNLKLCVFDDMAKHTLKALLDRGVAVTINSDDPAYFGGYVNENYFATAEGLQLTDAEVHAVIRNGFEASFIEPAQRDALYARLDAYWQAAEGHHHHHH | soluble
14 | MSLTRAQLEDMPQYQQVYSSINTWPSKKWYVGKGVHLSELLSLVGIKDDARLLKFTSQDGYTMTLTVKELLVDKRYYFPHFNDNKIGDGEGNIAGSSQGAELVEPIIALISVEGSNNPNYMNDLNTLVLMMGQRAVTEQTGNAFVKYLNKIEVLTSEVPKWDSPQANPGSGEVSAGTMIALSTARMDDDKIYYTTDGSTPNLNSPIYNWIAKRWWSARADILGTYNHPIGPINENTTIKAITIGPGKENSDVATFTYTVPVSKPASETSIVAPNEATNYPDQALEKPLQSEPKATLTDVQNHWAQKNINELIASGIAGGYPDSSFRPDNTITRAEFATMLVKAFNLQNQGGKVFADSEQHWAKEYISRATASGVVSGYDAENFGPDKLITREQMAVMISKAAKLVLKAEAMHFADSAGISEWAKEAVLAANQSGIVKGYPDNTIRPQGSATRAEAVTVIVNALTLKEGHHHHHH | not soluble
